One molecule from patent publication US20240018260A1 (AMUNIX PHARMACEUTICALS, published 2024) can be followed below.

The term EC50 denotes the concentration that produces a half-maximal response.

Experiment [1] deals with T1, human EpCAM on EpCAM positive human carcinoma cells (SW480, SK-OV-3) (human, UniProt P16422 24-314).
T1 sequence (looked up): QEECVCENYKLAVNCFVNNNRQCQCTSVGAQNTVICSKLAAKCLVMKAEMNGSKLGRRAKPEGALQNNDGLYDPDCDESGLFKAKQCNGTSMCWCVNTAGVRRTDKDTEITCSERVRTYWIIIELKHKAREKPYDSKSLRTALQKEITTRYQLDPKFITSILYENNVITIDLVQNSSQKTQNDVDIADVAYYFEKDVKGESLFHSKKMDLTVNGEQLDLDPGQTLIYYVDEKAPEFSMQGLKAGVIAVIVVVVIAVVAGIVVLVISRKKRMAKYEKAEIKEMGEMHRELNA
In words: cell-based or functional assay.

The target in experiment [2] is human CD3 on purified human CD3 positive T cells (human, UniProt P07766 23-207). In words: cell-based or functional assay.
The next experiment deals with T2, recombinant human CEA (human, UniProt P06731 35-685, limits assumed).
T2 construct: Coated on the ELISA plate; also called CEA antigen
T2 sequence (looked up): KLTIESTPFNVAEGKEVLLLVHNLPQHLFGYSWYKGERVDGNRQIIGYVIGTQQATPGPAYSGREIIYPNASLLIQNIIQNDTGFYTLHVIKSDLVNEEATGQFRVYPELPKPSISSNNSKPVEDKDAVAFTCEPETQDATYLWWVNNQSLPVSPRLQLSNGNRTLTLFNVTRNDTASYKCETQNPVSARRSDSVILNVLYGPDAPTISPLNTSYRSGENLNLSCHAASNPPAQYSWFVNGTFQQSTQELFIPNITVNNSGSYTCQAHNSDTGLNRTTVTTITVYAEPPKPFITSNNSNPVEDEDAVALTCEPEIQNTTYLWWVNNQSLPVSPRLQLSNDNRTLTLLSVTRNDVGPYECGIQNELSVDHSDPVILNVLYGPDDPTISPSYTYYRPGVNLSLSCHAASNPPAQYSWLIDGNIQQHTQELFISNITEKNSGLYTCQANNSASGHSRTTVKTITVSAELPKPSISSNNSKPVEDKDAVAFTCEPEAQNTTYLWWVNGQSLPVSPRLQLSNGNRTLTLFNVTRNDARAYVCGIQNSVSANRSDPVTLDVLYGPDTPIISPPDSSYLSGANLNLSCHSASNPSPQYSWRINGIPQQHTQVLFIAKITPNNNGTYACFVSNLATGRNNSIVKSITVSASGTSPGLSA
In words: sandwich ELISA: antigen coated on plate, detection with biotin-conjugated protein L. As for the experimental part:
(§1) The binding specificity of an anti-EpCAM×anti-CD3 ProTIA (e.g. AC1476) was evaluated in conjunction with the control ProTIA compositions anti-CEA×anti-CD3 ProTIA (e.g. AC1432) and anti-HER2×anti-CD3 ProTIA (e.g. AC1408), in a target antigen/biotin-conjugated protein-L sandwich ELISA. Both the anti-CEA×anti-CD3 ProTIA (AC1432) and the anti-HER2×anti-CD3 ProTIA (AC1408) bear the same anti-CD3 scFv component as the anti-EpCAM×anti-CD3 ProTIA (AC1476) albeit with different targeting component. In the ELISA binding assay, recombinant human EpCAM (rhEpCAM) (R&D Systems cat #960-EP-50), recombinant human CEA (Abcam cat #ab742) and recombinant human HER2 (AcroBiosystems cat #HE2-H525) were coated on a 96-well, flat-bottomed plate at a concentration of 0.1 microg/100 microL. After overnight incubation at 4° C., the assay plate was washed and blocked with 3% bovine serum albumin (BSA) for 1 h at room temperature. The plate was washed again followed by the introduction of a dose range (0.0007 to 0.5 nM, achieved with a 1:3 fold serial dilution scheme from a starting concentration of 0.5 nM) of protease-treated anti-EpCAM×anti-CD3 ProTIA (e.g. AC1476) to EpCAM-coated wells, CEA-coated wells and HER2-coated wells. […] After desired color intensity was reached, 0.2 N sulfuric acid was added to stop the reaction and absorbance (OD) was measured at 450 nm using a spectrophotometer. […]
(In general: In an ELISA, binding on a coated surface is turned into a signal by an enzyme label.)

In another experiment the target is T3, recombinant human HER2 (human, UniProt P04626 23-652).
T3 construct: Coated on the ELISA plate; also called HER2 antigen
The experiment is described as above. As for the experimental part:
as §1

Experiment [3] deals with T4, recombinant human EpCAM (rhEpCAM) (human, UniProt P16422 24-265).
T4 construct: Bought recombinant protein coated on the ELISA plate
T4 sequence (looked up): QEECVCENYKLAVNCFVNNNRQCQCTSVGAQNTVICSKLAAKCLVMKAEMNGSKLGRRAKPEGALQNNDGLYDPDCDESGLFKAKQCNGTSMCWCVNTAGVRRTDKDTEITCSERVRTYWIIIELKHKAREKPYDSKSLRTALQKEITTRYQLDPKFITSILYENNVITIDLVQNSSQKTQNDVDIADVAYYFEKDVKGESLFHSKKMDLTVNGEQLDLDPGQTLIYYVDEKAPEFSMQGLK
In words: sandwich ELISA: rhEpCAM coated on plate, detection with biotin-conjugated protein L. As for the experimental part:
as §1

The target of experiment [4] is T5, recombinant human CD3 (rhCD3εδ) (human, UniProt P07766 23-126; P04234 22-105).
T5 chain: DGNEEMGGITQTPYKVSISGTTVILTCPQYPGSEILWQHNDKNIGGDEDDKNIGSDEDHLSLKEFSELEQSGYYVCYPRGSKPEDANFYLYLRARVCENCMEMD
In words: sandwich ELISA: rhCD3εδ coated on plate, detection with peroxidase-conjugated protein L.

Experiment [5] addresses T4, recombinant human EpCAM (rhEpCAM). In words: sandwich ELISA: rhEpCAM coated on plate, detection with peroxidase-conjugated protein L. As to the method: The binding capability of anti-EpCAM×anti-CD3 ProTIA composition was verified with an EpCAM/peroxidase-conjugated protein-L sandwich ELISA. In the ELISA binding assay, recombinant human EpCAM (rhEpCAM) (Sino BiologicalR&D Systems cat #10694-H08H960-EP-50) was coated on a 96-well, flat-bottomed plate at a concentration of 0.1 microg/100 microL. After overnight incubation at 4° C., the assay plate was washed and blocked with 3% bovine serum albumin (BSA) for 1 h at room temperature. The plate was washed again followed by the introduction of a dose range of non-cleavable anti-EpCAM×anti-CD3 ProTIA (i.e., a ProTIA without the release segment cleavage sequence and AC1484, a ProTIA chimeric polypeptide assembly composition) and protease-treated and protease-untreated anti-EpCAM×anti-CD3 ProTIA (e.g. AC1476). The dose range utilized for non-cleavable and protease-treated and untreated ProTIA was 0.0006 to 5 nM, achieved with a 1:6 fold serial dilution scheme from a starting concentration of 5 nM. The plate was allowed to incubate with shaking for 1 h at room temperature to allow the non-cleavable, protease-cleaved and uncleaved ProTIA to bind to the rhEpCAM coated on the plate. Unbound components were removed with a wash step and a peroxidase-conjugated protein L (PierceThermoFisher Scientific cat #32420) was added. After an appropriate incubation period that allowed protein-L to bind to the kappa light of the scFvs, any unbound reagent was removed by a wash step followed by the addition of tetramethylbenzidine (TMB) substrate to each well. TMB is a chromogenic substrate of peroxidase. After desired color intensity was reached, 0.2 N sulfuric acid was added to stop the reaction and absorbance (OD) was measured at 450 nm using a spectrophotometer. The intensity of the color is proportional to the concentration of non-cleavable, protease-treated and untreated anti-EpCAM×anti-CD3 ProTIA captured by the rhEpCAM/protein-L sandwich ELISA. The intensity of the color produced (measured OD) was plotted against protein concentration; and the concentration of non-cleavable, protease-cleaved and uncleaved anti-EpCAM×anti-CD3 ProTIA that gave half-maximal response (EC₅₀) was derived with a 4-parameter logistic regression equation using GraphPad prism software.

B1: Protease-treated (MMP-9 cleaved) AC1476 anti-EpCAM×anti-CD3 ProTIA, released aEpCAM-aCD3 first portion (bispecific antibody)
chain: DIQMTQSPSSLSASVGDRVTITCRSTKSLLHSNGITYLYWYQQKPGKAPKLLIYQMSNLASGVPSRFSSSGSGTDFTLTISSLQPEDFATYYCAQNLEIPRTFGQGTKVEIKGATPPETGAETESPGETTGGSAESEPPGEGQVQLVQSGPGLVQPGGSVRISCAASGYTFTNYGMNWVKQAPGKGLEWMGWINTYTGESTYADSFKGRFTFSLDTSASAAYLQINSLRAEDTAVYYCARFAIKGDYWGQGTLLTVSSGGGGSDIQMTQSPSSLSASVGDRVTITCRASQDIRNYLNWYQQKPGKAPKLLIYYTSRLESGVPSRFSGSGSGTDYTLTISSLQPEDFATYYCQQGNTLPWTFGQGTKVEIKGATPPETGAETESPGETTGGSAESEPPGEGEVQLVESGGGLVQPGGSLRLSCAASGYSFTGYTMNWVRQAPGKGLEWVALINPYKGVSTYNQKFKDRFTISVDKSKNTAYLQMNSLRAEDTAVYYCARSGYYGDSDWYFDVWGQGTLVTVSSGTAEAASASGLSGRSDNHSPLG
notes: ESI-MS found 58,071 Da against a theoretical 58,067 Da; also called ProTIA-A; protease-treated anti-EpCAM×anti-CD3 ProTIA
With B1, the “EC50, LDH release cytotoxicity, PBMC:SK-OV-3 5:1” value in experiment [1] came to 3 pM. Besides, the “EC50, LDH release cytotoxicity, purified human CD3 positive T cells:OVCAR-3 5:1” value in experiment [2] came to 0.3 pM. The “EC50, LDH release cytotoxicity, purified human CD3 positive T cells:SK-OV-3 5:1” value in experiment [2] was 2.4 pM. Further, the binding result with recombinant human CEA and with recombinant human HER2 was “no binding (tested: 0.0007 to 0.5 nM (dose range tested))” throughout. For the same molecule, the values for the EC50 in experiment [3], in experiment [4] and in experiment [5] were 110 pM, 310 pM and 120 pM, respectively.
